B1: TIR domain-containing adapter molecule 1 (Mus musculus), Q80UF7 (parent)
chain: MDNPGPSLRGAFGILGALERDRLTHLKHKLGSLCSGSQESKLLHAMVLLALGQDTEARVSLESLKMNTVAQLVAHQWADMETTEGPEEPPDLSWTVARLYHLLAEENLCPASTRDMAYQVALRDFASQGDHQLGQLQNEAWDRCSSDIKGDPSGFQPLHSHQGSLQPPSASPAVTRSQPRPIDTPDWSWGHTLHSTNSTASLASHLEISQSPTLAFLSSHHGTHGPSKLCNTPLDTQEPQLVPEGCQEPEEISWPPSVETSVSLGLPHEISVPEVSPEEASPILPDALAAPDTSVHCPIECTELSTNSRSPLTSTTESVGKQWPITSQRSPQVPVGDDSLQNTTSSSPPAQPPSLQASPKLPPSPLSSASSPSSYPAPPTSTSPVLDHSETSDQKFYNFVVIHARADEQVALRIREKLETLGVPDGATFCEEFQVPGRGELHCLQDAIDHSGFTILLLTASFDCSLSLHQINHALMNSLTQSGRQDCVIPLLPLECSQAQLSPDTTRLLHSIVWLDEHSPIFARKVANTFKTQKLQAQRVRWKKAQEARTLKEQSIQLEAERQNVAAISAAYTAYVHSYRAWQAEMNKLGVAFGKNLSLGTPTPSWPGCPQPIPSHPQGGTPVFPYSPQPPSFPQPPCFPQPPSFPQPPSFPLPPVSSPQSQSFPSASSPAPQTPGPQPLIIHHAQMVQLGVNNHMWGHTGAQSSDDKTECSENPCMGPLTDQGEPLLETPE
B2: Myeloid differentiation primary response protein MyD88 (Mus musculus), P22366 (parent)
chain: MSAGDPRVGSGSLDSFMFSIPLVALNVGVRRRLSLFLNPRTPVAADWTLLAEEMGFEYLEIRELETRPDPTRSLLDAWQGRSGASVGRLLELLALLDREDILKELKSRIEEDCQKYLGKQQNQESEKPLQVARVESSVPQTKELGGITTLDDPLGQTPELFDAFICYCPNDIEFVQEMIRQLEQTDYRLKLCVSDRDVLPGTCVWSIASELIEKRCRRMVVVVSDDYLQSKECDFQTKFALSLSPGVQQKRLIPIKYKAMKKDFPSILRFITICDYTNPCTKSWFWTRLAKALSLP

Variants of: B1
Details: with cblb_mouse Cblb
Target sequence in this assay (Q3TTA7 whole entry): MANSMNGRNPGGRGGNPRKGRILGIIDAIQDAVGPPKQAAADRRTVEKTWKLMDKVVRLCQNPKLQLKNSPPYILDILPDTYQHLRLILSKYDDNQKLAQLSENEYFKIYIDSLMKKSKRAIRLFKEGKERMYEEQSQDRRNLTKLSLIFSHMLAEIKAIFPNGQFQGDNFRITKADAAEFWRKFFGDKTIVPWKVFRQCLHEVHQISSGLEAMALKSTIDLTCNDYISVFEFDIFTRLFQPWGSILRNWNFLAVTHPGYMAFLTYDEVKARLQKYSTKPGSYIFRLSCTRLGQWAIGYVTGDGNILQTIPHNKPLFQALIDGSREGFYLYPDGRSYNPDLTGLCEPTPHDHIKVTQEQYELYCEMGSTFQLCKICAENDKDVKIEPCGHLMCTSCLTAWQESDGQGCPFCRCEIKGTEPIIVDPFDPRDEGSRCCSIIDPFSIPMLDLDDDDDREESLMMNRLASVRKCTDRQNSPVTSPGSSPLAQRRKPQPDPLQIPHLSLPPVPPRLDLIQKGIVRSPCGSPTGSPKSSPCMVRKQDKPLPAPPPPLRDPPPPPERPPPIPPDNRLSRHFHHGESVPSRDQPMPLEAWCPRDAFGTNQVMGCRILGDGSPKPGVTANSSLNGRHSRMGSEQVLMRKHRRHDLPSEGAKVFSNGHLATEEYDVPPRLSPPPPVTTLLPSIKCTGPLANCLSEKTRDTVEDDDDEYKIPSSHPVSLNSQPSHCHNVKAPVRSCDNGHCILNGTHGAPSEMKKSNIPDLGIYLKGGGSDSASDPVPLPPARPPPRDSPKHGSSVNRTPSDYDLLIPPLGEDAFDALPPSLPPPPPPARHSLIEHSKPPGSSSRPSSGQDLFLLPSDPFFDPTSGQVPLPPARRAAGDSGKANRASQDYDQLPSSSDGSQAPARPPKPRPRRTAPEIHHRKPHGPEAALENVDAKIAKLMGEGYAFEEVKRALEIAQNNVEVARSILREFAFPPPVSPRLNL

effect of a mutation on the interaction	Variant
decreasing interaction	Y375F

Variants of: B2
Details: with cblb_mouse Cblb
Target sequence in this assay (Q3TTA7 whole entry): as above

effect of a mutation on the interaction	Variant
decreasing interaction	Y227F

From IntAct's records for PubMed 20639876
